One protein from US20210386836 can be followed below.

Series [1] addresses T1, C-Reactive protein, P02741.
T1 chain: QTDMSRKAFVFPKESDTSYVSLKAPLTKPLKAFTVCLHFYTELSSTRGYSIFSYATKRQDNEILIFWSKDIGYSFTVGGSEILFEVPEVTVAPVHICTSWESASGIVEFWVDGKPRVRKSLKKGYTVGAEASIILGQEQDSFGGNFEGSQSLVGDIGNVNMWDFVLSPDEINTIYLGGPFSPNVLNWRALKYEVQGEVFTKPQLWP

The next series concerns the target T2, C1 inhibitor, P05155.
T2 chain: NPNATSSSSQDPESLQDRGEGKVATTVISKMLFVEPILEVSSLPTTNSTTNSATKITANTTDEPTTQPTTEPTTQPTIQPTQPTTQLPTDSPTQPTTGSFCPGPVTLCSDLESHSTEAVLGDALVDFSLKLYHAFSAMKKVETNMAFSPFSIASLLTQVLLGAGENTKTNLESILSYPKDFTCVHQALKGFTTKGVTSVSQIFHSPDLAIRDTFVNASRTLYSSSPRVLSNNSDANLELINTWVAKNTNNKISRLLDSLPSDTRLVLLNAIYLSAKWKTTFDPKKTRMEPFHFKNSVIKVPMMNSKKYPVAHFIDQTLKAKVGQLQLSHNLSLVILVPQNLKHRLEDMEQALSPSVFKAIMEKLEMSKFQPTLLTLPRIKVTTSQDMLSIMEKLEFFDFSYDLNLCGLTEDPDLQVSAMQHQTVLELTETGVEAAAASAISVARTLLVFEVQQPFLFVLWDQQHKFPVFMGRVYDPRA

The target of a further series is T3, C2, P06681.
T3 chain: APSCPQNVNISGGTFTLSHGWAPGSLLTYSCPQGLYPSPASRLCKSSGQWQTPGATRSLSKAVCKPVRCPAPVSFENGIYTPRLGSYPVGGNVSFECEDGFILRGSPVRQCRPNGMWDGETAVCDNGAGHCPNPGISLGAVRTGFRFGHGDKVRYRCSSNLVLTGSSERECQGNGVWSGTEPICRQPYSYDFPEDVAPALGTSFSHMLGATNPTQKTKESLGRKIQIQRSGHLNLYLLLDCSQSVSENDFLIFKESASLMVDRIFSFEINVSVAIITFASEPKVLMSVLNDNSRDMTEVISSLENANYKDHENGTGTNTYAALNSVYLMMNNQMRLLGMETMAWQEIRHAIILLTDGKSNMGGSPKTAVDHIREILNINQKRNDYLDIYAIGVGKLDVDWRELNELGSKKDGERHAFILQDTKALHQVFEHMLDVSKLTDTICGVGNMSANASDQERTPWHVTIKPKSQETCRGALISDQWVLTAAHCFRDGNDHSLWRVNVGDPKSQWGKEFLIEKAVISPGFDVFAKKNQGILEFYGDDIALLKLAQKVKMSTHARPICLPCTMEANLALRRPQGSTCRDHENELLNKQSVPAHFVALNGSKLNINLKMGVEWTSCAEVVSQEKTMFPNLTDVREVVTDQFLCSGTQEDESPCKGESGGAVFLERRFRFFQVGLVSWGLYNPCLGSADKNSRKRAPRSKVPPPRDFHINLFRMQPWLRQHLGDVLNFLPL

Another series has as its target T4, C2a, P06681.
T4 chain: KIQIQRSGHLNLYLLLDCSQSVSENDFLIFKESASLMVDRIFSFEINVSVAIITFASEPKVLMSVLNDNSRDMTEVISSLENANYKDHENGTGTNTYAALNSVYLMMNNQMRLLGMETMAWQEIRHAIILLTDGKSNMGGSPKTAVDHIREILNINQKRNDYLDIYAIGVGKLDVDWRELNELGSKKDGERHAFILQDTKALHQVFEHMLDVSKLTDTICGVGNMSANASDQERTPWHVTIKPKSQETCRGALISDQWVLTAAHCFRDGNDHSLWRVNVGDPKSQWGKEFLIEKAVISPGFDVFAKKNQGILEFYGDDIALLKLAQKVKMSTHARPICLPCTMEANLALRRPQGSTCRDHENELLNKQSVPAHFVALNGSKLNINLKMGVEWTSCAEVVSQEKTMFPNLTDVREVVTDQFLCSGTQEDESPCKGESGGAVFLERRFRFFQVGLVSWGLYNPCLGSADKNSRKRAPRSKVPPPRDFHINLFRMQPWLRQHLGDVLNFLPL

The next series deals with T5, β-casein.
T5 sequence (P02666 16-224, species assumed, looked up): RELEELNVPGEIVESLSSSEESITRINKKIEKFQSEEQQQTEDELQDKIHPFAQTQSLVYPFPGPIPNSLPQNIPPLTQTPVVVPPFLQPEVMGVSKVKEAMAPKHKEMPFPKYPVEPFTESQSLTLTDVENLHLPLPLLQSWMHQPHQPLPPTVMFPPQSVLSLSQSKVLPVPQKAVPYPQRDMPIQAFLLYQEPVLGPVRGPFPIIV

C3a, P01024, sequence (P01024 672-748): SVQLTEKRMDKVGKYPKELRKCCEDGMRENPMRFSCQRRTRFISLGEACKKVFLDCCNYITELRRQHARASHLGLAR
Properidin, P27918, sequence (P27918 28-469): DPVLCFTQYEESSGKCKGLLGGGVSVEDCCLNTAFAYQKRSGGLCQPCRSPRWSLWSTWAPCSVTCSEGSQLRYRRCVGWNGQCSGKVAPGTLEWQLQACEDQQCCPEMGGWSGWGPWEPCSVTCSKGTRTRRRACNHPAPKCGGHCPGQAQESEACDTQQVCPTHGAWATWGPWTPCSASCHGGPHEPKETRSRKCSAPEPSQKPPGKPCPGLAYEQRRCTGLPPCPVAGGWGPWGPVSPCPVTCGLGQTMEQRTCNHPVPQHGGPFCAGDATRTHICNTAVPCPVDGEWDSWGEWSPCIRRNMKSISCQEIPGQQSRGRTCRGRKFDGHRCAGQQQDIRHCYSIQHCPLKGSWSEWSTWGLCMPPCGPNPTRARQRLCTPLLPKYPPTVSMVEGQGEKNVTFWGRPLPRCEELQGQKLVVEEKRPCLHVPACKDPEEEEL

B1: PrtV(Pro-B) (protein)
chain: DTVNGSESVKTEATQASGSSVQDNATAKTTVTTNSNSSNNVSNVQTDTVKEAATSNVDSVASQNQATTAQQAKTTADTADQTVPPTTYKDHVKGNVQTAWDNGYKGQGMVVAVIDSGADTNHKDFSKAPESPAISKEDADKKISELGYGKYASEKFPFVYNYASRDNNWVKDDGPDASEHGQHVAGIIGADGQPNGNERYAVGVAPETQLMMMRVFNDQFADENTDDIAQAIYDAVKLGANVIQMSLGQGVAAANLNDVEQKAVEYATQHGVFVSISASNNGNSASVTGEEVPYKPGGADGNFEPFSSSTVANPGASRNAMTVAAENSVVGAGDDMADFSSWGPLQDFTLKPDVSAPGVSVTSTGNDNRYNTMSGTSMAGPFNAGVAALVMQRLKATTNLNGADLVQATKALIMNTAKPMTQQGYDTPVSPRRQGAGEIDAGAATESPVYVVAADGTSSVSLRKVGDSTQFALTFKNLSDKDQTYTFDDFGGGLTEVRDADTGTFHDVYLAGAHVYGNKTVTVKAGQSATYNFTLSLTGLKENQLVEGWLRFVGNDGQNQLVVPYLAYYGDMTSEDVFDKAANQEGTVYGGNYFVNEDNYPRGVADEDSLKALVNLEGNYNWQQVAKLYQDGKVAFSPNADGKSDLLKPYAFVKQNLKDLKVEVLDKSGKVVRVVADEQGLDKSYYESGVNKDVTLSVSMRNNPNTLAWDGKVYDDKAGEMVNAADGEYTYRYVATLYNDGVNKVQTADYPVVIDTTAPVLSNVKYDAATHTLSFDYKDTGSGFTDYSYAVVKVNDKTFGYKLNDGKNSKFLDAAKTSGTFKAVLGSDTLAALTAAKNALSVAVSDVADNTSTVTLLVNGNNDATTKVSVWNATNGLELDQSSPDYQAATSTYNLRGNATSDFYYNGALVQVDNSGNFVVPVSTSDTAVVFTSDAAGKNVVYKLNTATPKAVFAWQVNNTVKENFGIVLDTVVSNNKDDVVVQAAVTKGDNVEAYARDYFTGAVYKADVKDGLATFHVKVTNNSGRTVLLGWTEVVGPTFNDVQRTSANGVYLGVDTDTENPTPAPAFTSADQLGTNVVQEKADSATIGNPGDLPGHSLKDLTTRADANPDIHFDYLKDNDYNWVGAQAVKDGVYNPSTQVFTLTGKVDPNVKSLVVLGDSYNEDDPVNKVNLNSDGTFSFQFHTAPTSQRPVAYIYTKDDGSTTRGTMELILDTVLPTLSLNNVANLQLDSNGDYQVYTNNKDFSVSGEATDNLDGYRFFFNGDNDYREFHNSGVNFVAEAHQDGSTVTNPYPAYKFSKTFNLADATGETTHVYTLSVVDLTGNTVTRKFYVHY
On to B1, for which the “proteolytic activity (SDS-PAGE)” value in series [1] is “None of the complement proteins tested show evidence of breakdown”; in the series with C1 inhibitor, P05155, “None of the complement proteins tested show evidence of breakdown”; with C2, P06681, “None of the complement proteins tested show evidence of breakdown”; in the series with C2a, P06681 it was “None of the complement proteins tested show evidence of breakdown”; with C4, “None of the complement proteins tested show evidence of breakdown”; in the series with C5, P01031, “None of the complement proteins tested show evidence of breakdown”. The “proteolytic activity (SDS-PAGE)” value in the series with Properidin, P27918 was “None of the complement proteins tested show evidence of breakdown”. Further, the “protein cleavage assay (SDS-PAGE)” value is recorded as “has activities against” with C3a, P01024; “has activities against” with ENA-78; “has activities against” with IL-1β; “has activities against” with IL-8. Besides, the “proteolytic activity (control of enzyme stock)” value with C3a, P01024 is reported as “shown to be active against C3a”. For the same protein, the “digestion (SDS-PAGE)” value in the series with cytochrome C, with fibrinogen, in the series with haemoglobin and with lysozyme was “did not digest” each time. For the same protein, the “casein activity assay (SDS-PAGE)” value in the series with α-casein, with β-casein and with κ-casein was “cleaving only α-casein in a limited manner” throughout.
